Results: patent US6124449, “High affinity TGFβ nucleic acid ligands and inhibitors” (NeXstar Pharmaceuticals, Inc.)
Numbering of substitutions follows the chain as printed.

How the values were obtained:
TGF-beta1 (hTGF-beta1) [1] = target: T1, TGF-beta1 (hTGF-beta1) (Homo sapiens, UniProt P01137 P01137:279-390); assay: filter; biphasic; Kd1 3.8±0.9 nM; conditions: tags: R&D Systems; biotinylated form (NFTG0) used for BIAcore; chain copies: 2
TGF-beta1 (hTGF-beta1) [2] = target: T1, TGF-beta1 (hTGF-beta1); assay: filter; biphasic; Kd1 11.5±2.0 nM; conditions: tags: R&D Systems; biotinylated form (NFTG0) used for BIAcore; chain copies: 2
TGF-beta1 (hTGF-beta1) [3] = target: T1, TGF-beta1 (hTGF-beta1); assay: filter; biphasic; Kd1 12.7±4.7 nM; conditions: tags: R&D Systems; biotinylated form (NFTG0) used for BIAcore; chain copies: 2
TGF-beta1 (hTGF-beta1) [4] = target: T1, TGF-beta1 (hTGF-beta1); assay: filter; biphasic; Kd1 7.7±1.6 nM; conditions: tags: R&D Systems; biotinylated form (NFTG0) used for BIAcore; chain copies: 2
TGF-beta1 (hTGF-beta1) [5] = target: T1, TGF-beta1 (hTGF-beta1); assay: filter; biphasic; Kd1 12.3±2.4 nM; conditions: tags: R&D Systems; biotinylated form (NFTG0) used for BIAcore; chain copies: 2
TGF-beta1 (hTGF-beta1) [6] = target: T1, TGF-beta1 (hTGF-beta1); assay: filter; biphasic; Kd1 71.8 nM; P2 4.3%; conditions: tags: R&D Systems; biotinylated form (NFTG0) used for BIAcore; chain copies: 2
TGF-beta1 (hTGF-beta1) [7] = target: T1, TGF-beta1 (hTGF-beta1); assay: filter; biphasic; Kd1 6.02±1.5 nM; conditions: tags: R&D Systems; biotinylated form (NFTG0) used for BIAcore; chain copies: 2
TGF-beta1 (hTGF-beta1) [8] = target: T1, TGF-beta1 (hTGF-beta1); assay: filter; biphasic; Kd1 67 nM; P2 4.3%; conditions: tags: R&D Systems; biotinylated form (NFTG0) used for BIAcore; chain copies: 2
TGF-beta1 (hTGF-beta1) [9] = target: T1, TGF-beta1 (hTGF-beta1); assay: filter; biphasic; Kd1 20.7±13.8 nM; conditions: tags: R&D Systems; biotinylated form (NFTG0) used for BIAcore; chain copies: 2
TGF-beta1 (hTGF-beta1) [10] = target: T1, TGF-beta1 (hTGF-beta1); assay: cell_activity; MLEC growth suppression reversal; conditions: tags: R&D Systems; biotinylated form (NFTG0) used for BIAcore; chain copies: 2; label: 5'-biotin for BIAcore specificity; proposed double pseudoknot
Method: Cells were plated at 10^5/mL in 96-well plates in MEM, 10 mM HEPES and 0.2% FBS. Following 4 hours of incubation at 37° C., when cells appeared to attach to the well surface, TGFβ1 was added at 2 pM with or without TGFβ1 ligands that ranged from 0.1 nM to 1 µM. In a second assay performed in order to determine cross-species reactivity, rather than using hTGFβ, a conditioned serum-free medium (CM) was used. CM was conditioned by culturing it in murine 3T3 fibroblast for 48 hours. Before use, this conditioned medium was heat treated at 80° C. for 10 minutes to activate the 3T3 cell derived TGFβ and then it was diluted to 50% and supplemented with 0.2% murine serum. In each assay, hTGFβ1 (or CM) was diluted appropriately in MEM and FBS (0.2% or murine serum) and the ligands were diluted in MEM. TGFβ1 (or CM) and ligand dilutions at 10× the final concentration were premixed at equal volumes and then were added to the cells. […] After incubation, the cells were washed and harvested with SKATRON filtering units and ^3H-thymidine incorporation in cellular DNA was quantitated by scintillation counting in Ecoscint. Data were plotted and analyzed as described in Park et al. (1990) J. Exp. Med. 171:1073) and Dower et al. (1984) J. Immunol.

TGF-beta1 (hTGF-beta1) [11] = target: T1, TGF-beta1 (hTGF-beta1); assay: filter; biphasic; Kd1 4.6±0.7 nM; conditions: tags: R&D Systems; biotinylated form (NFTG0) used for BIAcore; chain copies: 2
TGF-beta1 (hTGF-beta1) [12] = target: T1, TGF-beta1 (hTGF-beta1); assay: filter; biphasic; Kd1 23±6.4 nM; labelled 30-35 in Table 4 class 7 but sequence is 30-25; conditions: tags: R&D Systems; biotinylated form (NFTG0) used for BIAcore; chain copies: 2
TGF-beta1 (hTGF-beta1) [13] = target: T1, TGF-beta1 (hTGF-beta1); assay: filter; biphasic; Kd1 13.9±4.3 nM; conditions: tags: R&D Systems; biotinylated form (NFTG0) used for BIAcore; chain copies: 2
TGF-beta1 (hTGF-beta1) [14] = target: T1, TGF-beta1 (hTGF-beta1); assay: cell_activity; MLEC assay; conditions: tags: R&D Systems; biotinylated form (NFTG0) used for BIAcore; chain copies: 2
Method: Cells were plated at 10^5/mL in 96-well plates in MEM, 10 mM HEPES and 0.2% FBS. Following 4 hours of incubation at 37° C., when cells appeared to attach to the well surface, TGFβ1 was added at 2 pM with or without TGFβ1 ligands that ranged from 0.1 nM to 1 µM. In a second assay performed in order to determine cross-species reactivity, rather than using hTGFβ, a conditioned serum-free medium (CM) was used. CM was conditioned by culturing it in murine 3T3 fibroblast for 48 hours. Before use, this conditioned medium was heat treated at 80° C. for 10 minutes to activate the 3T3 cell derived TGFβ and then it was diluted to 50% and supplemented with 0.2% murine serum. In each assay, hTGFβ1 (or CM) was diluted appropriately in MEM and FBS (0.2% or murine serum) and the ligands were diluted in MEM. TGFβ1 (or CM) and ligand dilutions at 10× the final concentration were premixed at equal volumes and then were added to the cells. Following addition of the TGFβ1 (or CM)-ligand mixture, the cells were incubated for 16–18 hours prior to addition of ^3H-thymidine at 0.25 µCi per well and continued incubation for 7–8 additional hours. After incubation, the cells were washed and harvested with SKATRON filtering units and ^3H-thymidine incorporation in cellular DNA was quantitated by scintillation counting in Ecoscint. Data were plotted and analyzed as described in Park et al. (1990) J. Exp. Med. 171:1073) and Dower et al. (1984) J. Immunol.

TGF-beta1 (hTGF-beta1) [15] = target: T1, TGF-beta1 (hTGF-beta1); assay: filter; biphasic; Kd1 14.2±4.5 nM; conditions: tags: R&D Systems; biotinylated form (NFTG0) used for BIAcore; chain copies: 2
TGF-beta1 (hTGF-beta1) [16] = target: T1, TGF-beta1 (hTGF-beta1); assay: filter; biphasic; Kd1 5.0±0.6 nM; conditions: tags: R&D Systems; biotinylated form (NFTG0) used for BIAcore; chain copies: 2

T1 sequence (P01137 279-390, one chain of several): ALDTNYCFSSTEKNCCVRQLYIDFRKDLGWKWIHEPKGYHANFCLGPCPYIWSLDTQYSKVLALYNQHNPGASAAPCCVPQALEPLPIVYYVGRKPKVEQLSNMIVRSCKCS

B1: 40-41 (ssRNA)
RNA: GGGAGGACGAUGCGGUGCCUUUAGCCUGAGUAUACUGAUGUAUAUUCUCUGCCGCAGACGACUCGCCCGA
modifications: 2'-F C and U
- Kd (TGF-beta1 (hTGF-beta1) [1]): 0.0014 nM

B2: 40-39 (ssRNA)
RNA: GGGAGGACGAUGCGGUGCCUUUAGCCUAAGUUGAUCUAUUCAGCUUUCUGCCGCAGACGACUCGCCCGA
modifications: 2'-F C and U
- Kd (TGF-beta1 (hTGF-beta1) [2]): 0.00878 nM

B3: 40-24 (ssRNA)
RNA: GGGAGGACGAUGCGGUUAUGGGCGUCAACACCGCUAUUACAACUUUCGCUUUCCCAGACGACUCGCCCGA
modifications: 2'-F C and U
- Kd (TGF-beta1 (hTGF-beta1) [3]): 0.0275 nM

B4: 40-26 (ssRNA)
RNA: B3 RNA with U19G, C31U, C43U, U44C, U50C
modifications: 2'-F C and U
- Kd (TGF-beta1 (hTGF-beta1) [4]): 0.0408 nM

B5: 40-28 (ssRNA)
RNA: B3 RNA with U19G, U50C, U52C, C53A
modifications: 2'-F C and U
- Kd (TGF-beta1 (hTGF-beta1) [5]): 0.0816 nM

B6: 30-16,27,38,46 (ssRNA)
RNA: GGGAGGACGAUGCGGUGCCUUUAGCUUAGGCAUUGCCUUCUGCCGCAGACGACUCGCCCGA
modifications: 2'-F C and U
- Kd (TGF-beta1 (hTGF-beta1) [6]): 0.211 nM

B7: 30-39 (ssRNA)
RNA: B6 RNA with C18U, C31U, A32G, U33A, G35U
modifications: 2'-F C and U
- Kd (TGF-beta1 (hTGF-beta1) [7]): 0.0325 nM

B8: 30-17 (ssRNA)
RNA: B6 RNA with A32U
modifications: 2'-F C and U
- Kd (TGF-beta1 (hTGF-beta1) [8]): 0.205 nM

B9: 30-35 (ssRNA)
RNA: B6 RNA with C18U, U26C, C31U, A32G, U33A, G35U, G45U
modifications: 2'-F C and U
- Kd (TGF-beta1 (hTGF-beta1) [9]): 0.224 nM

B10: 40-03 (ssRNA)
RNA: GGGAGGACGAUGCGGGGGUUAUUGGGCGUCAACAUCCCCGAUUCUUUUCACGUCCAGACGACUCGCCCGA
modifications: 2'-F C and U
- Ki (TGF-beta1 (hTGF-beta1) [10]): 0.4 nM

B11: 40-11 (ssRNA)
RNA: GGGAGGACGAUGCGGUGCCUUUAGUCUGAAUCUUCUACCAUGAUUCUCUGCCGCAGACGACUCGCCCGA
modifications: 2'-F C and U
- Kd (TGF-beta1 (hTGF-beta1) [11]): 0.0049 nM

B12: 30-25 (ssRNA)
RNA: GGGAGGACGAUGCGGUUGGCAUUGAAAGAGGCGUCAUAUGUUCGCCAGACGACUCGCCCGA
modifications: 2'-F C and U
- Kd (TGF-beta1 (hTGF-beta1) [12]): 0.00114 nM

B13: 40-22,35 (ssRNA)
RNA: GGGAGGACGAUGCGGUUAGGGGCGUCAACACCGCUAUUACAAUUUUCGCUUCCCAGACGACUCGCCCGA
modifications: 2'-F C and U
- Kd (TGF-beta1 (hTGF-beta1) [13]): 0.0176 nM

B14: 40-23 (ssRNA)
RNA: B13 RNA with U44C
modifications: 2'-F C and U
- Ki (TGF-beta1 (hTGF-beta1) [14]): 0.75 nM
- Kd (TGF-beta1 (hTGF-beta1) [15]): 0.0156 nM

B15: 40-04 (ssRNA)
RNA: GGGAGGACGAUGCGGAUGCCUUUUGCCUUCAGGGUGUAAUUCCUUGAUCUGUCCGCAGACGACUCGCCCGA
modifications: 2'-F C and U
- Kd (TGF-beta1 (hTGF-beta1) [16]): 0.0014 nM
